Laboratory results published in patent US20130203116, “EXPRESSION AND PURIFICATION OF FUSION PROTEIN WITH MULTIPLE MBP TAGS” (The Regents of the University of California 1111 Franklin …, published 2013).

What was measured:
[1] = target: T1, BRCA2 (2XMBP-BRCA2, full length) (Homo sapiens, UniProt P51587 P51587:1-3418); test: EMSA; strongly preferred over dsDNA; 1 mM MgCl2, 2 mM CaCl2, 2 mM ATP, 37 C; settings: tags: N-terminal 2xMBP with PreScission site, expressed in human 293T cells, amylose + HiTrap Q
[2] = target: T1, BRCA2 (2XMBP-BRCA2, full length); test: EMSA; strongly preferred over dsDNA; slight preference over ssDNA at high salt (0.5-1 M NaCl); 1 mM MgCl2, 2 mM CaCl2, 2 mM ATP, 37 C; settings: tags: N-terminal 2xMBP with PreScission site; expressed in human 293T cells, amylose + HiTrap Q; label: 5'-32P on 167-mer (EMSA); 42 bp duplex with 125 nt 3' ssDNA overhang

T1 sequence (P51587 whole entry, one chain of several): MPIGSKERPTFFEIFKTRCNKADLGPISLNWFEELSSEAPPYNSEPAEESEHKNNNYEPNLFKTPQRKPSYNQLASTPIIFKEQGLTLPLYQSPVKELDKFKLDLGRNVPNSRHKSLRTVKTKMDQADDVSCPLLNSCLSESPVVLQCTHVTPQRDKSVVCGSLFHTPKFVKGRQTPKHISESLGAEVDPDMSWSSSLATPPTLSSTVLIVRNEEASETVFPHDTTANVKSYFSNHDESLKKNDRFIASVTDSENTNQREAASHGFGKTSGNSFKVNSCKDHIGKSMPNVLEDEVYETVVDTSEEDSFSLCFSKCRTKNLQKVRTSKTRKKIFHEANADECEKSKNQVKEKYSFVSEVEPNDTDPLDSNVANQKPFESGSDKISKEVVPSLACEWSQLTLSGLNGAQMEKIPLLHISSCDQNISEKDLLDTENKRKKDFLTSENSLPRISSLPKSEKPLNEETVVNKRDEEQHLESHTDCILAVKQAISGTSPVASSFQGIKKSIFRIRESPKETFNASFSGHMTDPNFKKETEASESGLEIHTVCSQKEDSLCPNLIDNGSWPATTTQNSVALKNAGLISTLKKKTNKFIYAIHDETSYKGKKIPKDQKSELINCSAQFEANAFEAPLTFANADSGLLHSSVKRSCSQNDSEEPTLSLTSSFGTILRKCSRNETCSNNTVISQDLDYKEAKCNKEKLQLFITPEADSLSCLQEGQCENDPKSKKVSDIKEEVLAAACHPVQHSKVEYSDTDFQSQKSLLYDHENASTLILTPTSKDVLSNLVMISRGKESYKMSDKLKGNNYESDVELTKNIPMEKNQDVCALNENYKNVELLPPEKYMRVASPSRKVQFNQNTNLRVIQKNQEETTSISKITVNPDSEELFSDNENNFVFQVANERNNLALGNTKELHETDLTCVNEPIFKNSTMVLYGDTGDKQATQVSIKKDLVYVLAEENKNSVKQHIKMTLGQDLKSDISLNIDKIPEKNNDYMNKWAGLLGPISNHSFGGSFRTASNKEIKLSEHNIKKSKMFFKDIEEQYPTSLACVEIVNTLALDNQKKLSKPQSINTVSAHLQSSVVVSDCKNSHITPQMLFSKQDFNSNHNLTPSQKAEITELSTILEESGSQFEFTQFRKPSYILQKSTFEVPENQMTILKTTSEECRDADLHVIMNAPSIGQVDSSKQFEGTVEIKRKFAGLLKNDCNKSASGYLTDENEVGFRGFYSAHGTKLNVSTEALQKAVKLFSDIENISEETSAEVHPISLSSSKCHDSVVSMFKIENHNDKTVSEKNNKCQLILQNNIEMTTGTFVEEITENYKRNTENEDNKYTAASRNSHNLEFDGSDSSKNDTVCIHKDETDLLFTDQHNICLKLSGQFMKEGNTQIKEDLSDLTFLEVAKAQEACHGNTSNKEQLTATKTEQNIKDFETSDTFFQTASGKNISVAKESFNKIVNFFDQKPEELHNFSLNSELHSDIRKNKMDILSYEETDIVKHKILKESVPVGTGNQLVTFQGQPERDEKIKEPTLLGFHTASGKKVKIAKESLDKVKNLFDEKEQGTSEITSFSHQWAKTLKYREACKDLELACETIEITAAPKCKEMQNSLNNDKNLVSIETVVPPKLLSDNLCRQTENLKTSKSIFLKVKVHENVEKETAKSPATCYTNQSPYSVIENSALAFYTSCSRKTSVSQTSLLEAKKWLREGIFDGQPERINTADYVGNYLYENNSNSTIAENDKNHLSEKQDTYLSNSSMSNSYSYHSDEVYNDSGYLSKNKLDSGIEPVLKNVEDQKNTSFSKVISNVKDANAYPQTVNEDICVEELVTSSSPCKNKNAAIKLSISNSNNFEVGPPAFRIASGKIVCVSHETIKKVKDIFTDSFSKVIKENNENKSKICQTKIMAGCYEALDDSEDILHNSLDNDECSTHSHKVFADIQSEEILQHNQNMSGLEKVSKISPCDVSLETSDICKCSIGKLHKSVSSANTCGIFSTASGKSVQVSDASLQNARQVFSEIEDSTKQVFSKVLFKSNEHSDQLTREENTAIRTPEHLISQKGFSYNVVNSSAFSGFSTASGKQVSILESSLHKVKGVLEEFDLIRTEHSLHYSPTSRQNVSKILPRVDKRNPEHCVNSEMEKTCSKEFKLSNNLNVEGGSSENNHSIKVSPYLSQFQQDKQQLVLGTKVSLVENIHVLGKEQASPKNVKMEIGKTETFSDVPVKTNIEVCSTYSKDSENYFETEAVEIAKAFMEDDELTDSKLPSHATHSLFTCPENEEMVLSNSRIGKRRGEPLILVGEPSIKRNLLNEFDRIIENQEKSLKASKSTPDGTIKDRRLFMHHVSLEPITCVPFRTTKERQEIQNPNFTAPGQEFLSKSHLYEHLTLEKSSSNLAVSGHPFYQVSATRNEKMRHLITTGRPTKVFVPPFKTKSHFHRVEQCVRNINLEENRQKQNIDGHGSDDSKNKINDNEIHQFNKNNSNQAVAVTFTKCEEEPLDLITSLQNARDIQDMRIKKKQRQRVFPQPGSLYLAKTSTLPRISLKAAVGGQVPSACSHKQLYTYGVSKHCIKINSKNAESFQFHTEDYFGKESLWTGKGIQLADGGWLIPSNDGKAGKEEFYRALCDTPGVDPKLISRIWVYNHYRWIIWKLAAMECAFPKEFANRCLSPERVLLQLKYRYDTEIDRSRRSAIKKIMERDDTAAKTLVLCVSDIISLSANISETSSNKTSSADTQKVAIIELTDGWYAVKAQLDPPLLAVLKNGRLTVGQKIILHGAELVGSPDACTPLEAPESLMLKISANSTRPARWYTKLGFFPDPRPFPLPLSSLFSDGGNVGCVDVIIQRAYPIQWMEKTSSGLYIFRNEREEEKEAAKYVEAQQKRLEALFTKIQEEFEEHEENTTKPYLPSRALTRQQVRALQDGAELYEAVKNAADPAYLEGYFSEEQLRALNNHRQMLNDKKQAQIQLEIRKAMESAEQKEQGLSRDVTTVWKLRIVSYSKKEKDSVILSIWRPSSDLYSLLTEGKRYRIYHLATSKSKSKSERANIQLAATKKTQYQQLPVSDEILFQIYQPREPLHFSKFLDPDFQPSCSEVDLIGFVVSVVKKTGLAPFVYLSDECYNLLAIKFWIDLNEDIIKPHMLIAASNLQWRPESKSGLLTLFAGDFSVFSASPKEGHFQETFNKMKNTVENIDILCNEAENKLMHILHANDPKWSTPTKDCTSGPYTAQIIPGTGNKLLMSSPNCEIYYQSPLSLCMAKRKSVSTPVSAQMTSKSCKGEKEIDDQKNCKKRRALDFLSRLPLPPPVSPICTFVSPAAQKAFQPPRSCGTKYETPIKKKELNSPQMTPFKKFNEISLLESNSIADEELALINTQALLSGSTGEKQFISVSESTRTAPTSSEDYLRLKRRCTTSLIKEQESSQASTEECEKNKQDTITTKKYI

B1: 5' tailed DNA (RJ-5'TAIL-167-mer/RJ-PHIX-42-1) (mixed)
DNA 1: ATTTATTCTATTCCCTTTATTTTCTCTGTTTATTCATTTACTTATTTTGTATTAATTTCCTATATTTTTTACTTGTATTTCTTATTCATTTACTTATTTTGTATTATCCTTATTTATATCCTTTCTGCTTTATCAAGATAATTTTTCGACTCATCAGAAATATCCG
DNA 2: CGGATATTTCTGATGAGTCGAAAAATTATCTTGATAAAGCAG
[1]; label: 5'-32P on 167-mer (EMSA), 42 bp duplex with 5' ssDNA overhang
  binding result: binds

B2: RJ-167-mer ssDNA (ssDNA)
DNA: CTGCTTTATCAAGATAATTTTTCGACTCATCAGAAATATCCGTTTCCTATATTTATTCCTATTATGTTTTATTCATTTACTTATTCTTTATGTTCATTTTTTATATCCTTTACTTTATTTTCTCTGTTTATTCATTTACTTATTTTGTATTATCCTTATCTTATTTA
[1]; label: 5'-32P (EMSA)
  binding result: binds

B3: 3' tailed DNA (RJ-167-mer/RJ-PHIX-42-1) (mixed)
DNA 1: CTGCTTTATCAAGATAATTTTTCGACTCATCAGAAATATCCGTTTCCTATATTTATTCCTATTATGTTTTATTCATTTACTTATTCTTTATGTTCATTTTTTATATCCTTTACTTTATTTTCTCTGTTTATTCATTTACTTATTTTGTATTATCCTTATCTTATTTA
DNA 2: CGGATATTTCTGATGAGTCGAAAAATTATCTTGATAAAGCAG
[2]
  binding result: binds
